Measurements as given in patent US20240352438A1, “MEANS AND METHODS FOR DETOXIFYING OCHRATOXIN A” (DSM Austria GmbH, priority 2021, published 2024).

Experiments:
[1] = OTA detoxification activity assay (specific activity, fluorescence reduction ex/em 390/450 nm); assay type: biochemical; conditions: SEQ ID NO: 1 = 100%
In short: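 Recombinant enzyme preparation with 200 ng/mL OTA in 100 mM sodium phosphate, at pH 6.0 and pH 7.5, 37° C. Degradation followed as the fall in fluorescence at ex/em 390/450 nm. Specific activity taken from the initial linear slope; one unit degrades 1 μmol OTA per min at a starting OTA of […].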

[2] = Enzymatic activity comparison: activity remaining after 65° C. for 10 min at pH 6.0, relative to SEQ ID NO: 1; assay type: physicochemical
Description: To compare the temperature behavior and thermostability of selected enzymes to one another, enzyme was incubated at 65° C. for 10 min at pH 6.0. The enzymatic activity remaining after incubation was compared to the remaining activity of the enzyme of SEQ ID NO: 1 after incubation, the latter being set to 100%, see Table 16.

Row | Molecule | Specific OTA detoxification activities in % compared to the enzyme of SEQ ID NO: 1, pH 6.0 [1] [%] | Specific OTA detoxification activities in % compared to the enzyme of SEQ ID NO: 1, pH 7.5 [1] [%] | Enzymatic activity remaining after incubation, compared to SEQ ID NO: 1 (set to 100%) [2] [%]
1 | 299 (protein, exemplary polypeptide) MTTRTRILTAFLSLLAANACAADAAPAAPHTVVLRAARMFDGASGKLVDHPQLTIVGNKIVRIAQGDKAEVPAGAEVVDLGDATLLPGFIDAHVHLSGQSSDNWYGDFFDNMMRFPAEQALYGAYYARITLEAGFTSVRDVGSTDWVALGLRNAIDAGKVPGPRMLVSNYAVGSTGGHADQDPIPPHKLPLAGPLQGVCNGPEECRAAVRYQIKYGANVIKFMPSGGVLSLSDPVDAPELSQDEMNAVIGESHAWGRKVAAHAHGDKAAKMAVAAGVDSIEHGSFIEDDTLRAMKAKNVYLVPTISAIADVEEKIGTFPPVIAEKGRAAAAHLRQTFRHAVQIGVPIALGTDAGLGAHGSNAREFRYMVENGLTPAQALLAGTANAARLLGTFDRVGTLEAGKLADVVAVPGNPIADITVTERPLFVMKDGVVVRRDAVR | 156 | 95 | 27
2 | 300 (protein, exemplary polypeptide) MTTRTRILTAFLSLLAANACAADAAPAAPHTVVLRAARMFDGASGKLVDHPQLTIVGNKIVRIAQGDKAEVPAGAEVVDLGDATLLPGFIDAHVHLSGQSSDNWYGDFFDNMMRFPAEQALYGAYYARITLEAGFTSVRDVGSTDWVALGLRNAIDAGKVPGPRMLVSNYAVGSTGGHADQDPIPPHKLPLAGPLQGVCNGPEECRAAVRYQIKYGANVIKFMPSGGVLSLSDPVDAPELSQDEMNAVIGESHAWGRKVAAHAHGDKAAKMAVAAGVDSIEHGSFIEDDTLRAMKAKNVYLVPTISAIAEVEEKIGTFPPVIAEKGRAAAAHLRQTFRHAVQIGVPIALGTDAGLGAHGSNAREFRYMVENGLTPAQALLAGTANAARLLGTFDRVGTLEAGKLADVVAVPGNPIADITVTERPLFVMKDGVVVRRDAVR | 152 | 103 | 31
3 | 308 (protein, exemplary polypeptide) MTTRTRILTAFLSLLAANACAADAAPAAPHTVVLRAARMFDGASGKLVDHPQLTIVGNKIVRIAQGDKAEVPAGAEVVDLGDATLLPGFIDAHVHLSGQSSDNWYGDFFDNMMRFPAEQALYGAYYARITLEAGFTSVRDVGSTDWVALGLRNAIDAGKVPGPRMLVSNYAVGSTGGHADQDPIPPHKLPLAGPLQGVCNGPEECRAAVRYQIKYGANVIKFMPSGGVLSLSDPVDAPELSQDEMNAVIGESHAWGRKVAAHAHGDKAAKMAVAAGVDSIEHGSFIEDDTLRAMKAKNVYLVPTISAAAHVEEKIGTFPPVIAEKGRAAVAHLRQTFRHAVQIGVPIALGTDAGVGAHGSNAREFRYMVENGLTPAQALLAGTANAARLLGTFDRVGTLEAGKLADVVAVPGNPIADITVTERPLFVMKDGVVVRRDAVR | 171 | 117 | 39
4 | 303 (protein, exemplary polypeptide) MTTRTRILTAFLSLLAANACAADAAPAAPHTVVLRAARMFDGASGKLVDHPQLTIVGNKIVRIAQGDKAEVPAGAEVVDLGDATLLPGFIDAHVHLSGQSSDNWYGDFFDNMMRFPAEQALYGAYYARITLEAGFTSVRDVGSTDWVALGLRNAIDAGKVPGPRMLVSNYAVGSTGGHADQDPIPPHKLPLAGPLQGVCNGPEECRAAVRYQIKYGANVIKFMPSGGVLSLSDPVDAPELSQDEMNAVIGESHAWGRKVAAHAHGDKAAKMAVAAGVDSIEHGSFIEDDTLRAMKAKNVYLVPTISAIAHVEEKIGTFPPVIAEKGRAAAAHLRQTFRHAVQIGVPIALGTDAGLPAHGSNAREFRYMVENGLTPAQALLAGTANAARLLGTFDRVGTLEAGKLADVVAVPGNPIADITVTERPLFVMKDGVVVRRDAVR | 167 | 110 | 56
5 | 307 (protein, exemplary polypeptide) MTTRTRILTAFLSLLAANACAADAAPAAPHTVVLRAARMFDGASGKLVDHPQLTIVGNKIVRIAQGDKAEVPAGAEVVDLGDATLLPGFIDAHVHLSGQSSDNWYGDFFDNMMRFPAEQALYGAYYARITLEAGFTSVRDVGSTDWVALGLRNAIDAGKVPGPRMLVSNYAVGSTGGHADQDPIPPHKLPLAGPLQGVCNGPEECRAAVRYQIKYGANVIKFMPSGGVLSLSDPVDAPELSQDEMNAVIGESHAWGRKVAAHAHGDKAAKMAVAAGVDSIEHGSFIEDDTLRAMKAKNVYLVPTISAAAHVEEKIGTFPPVIAEKGRAAMAHLRQTFRHAVQIGVPIALGTDAGVGAHGSNAREFRYMVENGLTPAQALLAGTANAARLLGTFDRVGTLEAGKLADVVAVPGNPIADITVTERPLFVMKDGVVVRRDAVR | 138 | 84 | 35
6 | 306 (protein, exemplary polypeptide) MTTRTRILTAFLSLLAANACAADAAPAAPHTVVLRAARMFDGASGKLVDHPQLTIVGNKIVRIAQGDKAEVPAGAEVVDLGDATLLPGFIDAHVHLSGQSSDNWYGDFFDNMMRFPAEQALYGAYYARITLEAGFTSVRDVGSTDWVALGLRNAIDAGKVPGPRMLVSNYAVGSTGGHADQDPIPPHKLPLAGPLQGVCNGPEECRAAVRYQIKYGANVIKFMPSGGVLSLSDPVDAPELSQDEMNAVIGESHAWGRKVAAHAHGDKAAKMAVAAGVDSIEHGSFIEDDTLRAMKAKNVYLVPTISAAAHVEEKIGTFPPVIAEKGRAALAHLRQTFRHAVQIGVPIALGTDAGVGAHGSNAREFRYMVENGLTPAQALLAGTANAARLLGTFDRVGTLEAGKLADVVAVPGNPIADITVTERPLFVMKDGVVVRRDAVR | 114 | 74 | 36
7 | 304 (protein, exemplary polypeptide) MTTRTRILTAFLSLLAANACAADAAPAAPHTVVLRAARMFDGASGKLVDHPQLTIVGNKIVRIAQGDKAEVPAGAEVVDLGDATLLPGFIDAHVHLSGQSSDNWYGDFFDNMMRFPAEQALYGAYYARITLEAGFTSVRDVGSTDWVALGLRNAIDAGKVPGPRMLVSNYAVGSTGGHADQDPVPPHKLPLLGPLQGVCNGPEECRAAVRYQIKYGANVIKFMPSGGVLSLSDPVDAPELSQDEMNAVIGESHAWGRKVAAHAHGDKAAKMAVAAGVDSIEHGSFIEDDTLRAMKAKNVYLVPTISAIAHVEEKIGTFPPVIAEKGRAAAAHLRQTFRHAVQIGVPIALGTDAGVGAHGSNAREFRYMVENGLTPAQALLAGTANAARLLGTFDRVGTLEAGKLADVVAVPGNPIADITVTERPLFVMKDGVVVRRDAVR | 25 | 24 | 63
8 | 309 (protein, exemplary polypeptide) MTTRTRILTAFLSLLAANACAADAAPAAPHTVVLRAARMFDGASGKLVDHPQLTIVGNKIVRIAQGDKAEVPAGAEVVDLGDATLLPGFIDAHVHLSGQSSDNWYGDFFDNMMRFPAEQALYGAYYARITLEAGFTSVRDVGSTDWVALGLRNAIDAGKVPGPRMLVSNYAVGSTGGHADQDPIPPHKLPLAGPLQGVCNGPEECRAAVRYQIKYGANVIKFMPSGGVLSLSDPVDAPELSQDEMNAVIGESHAWGRKVAAHAHGDKAAKMAVAAGVDSIEHGSFIEDDTLRAMKAKNVYLVPTISAAAHVEEKIGTFPPVIAEKGRAAAAHIRQTFRHAVQIGVPIALGTDAGVGAHGSNAREFRYMVENGLTPAQALLAGTANAARLLGTFDRVGTLEAGKLADVVAVPGNPIADITVTERPLFVMKDGVVVRRDAVR | 106 | 48 | 28
9 | 301 (protein, exemplary polypeptide) MTTRTRILTAFLSLLAANACAADAAPAAPHTVVLRAARMFDGASGKLVDHPQLTIVGNKIVRIAQGDKAEVPAGAEVVDLGDATLLPGFIDAHVHLSGQSSDNWYGDFFDNMMRFPAEQALYGAYYARITLEAGFTSVRDVGSTDWVALGLRNAIDAGKVPGPRMLVSNYAVGSTGGHADQDPIPPHKLPLAGPLQGVCNGPEECRAAVRYQIKYGANVIKFMPSGGVLSLSDPVDAPELSQDEMNAVIGESHAWGRKVAAHAHGDKAAKMAVAAGVDSIEHGSFIEDDTLRAMKAKNVYLVPTISAIAHAEEKIGTFPPVIAEKGRAAAAHLRQTFRHAVQIGVPIALGTDAGLGAHGSNAREFRYMVENGLTPAQALLAGTANAARLLGTFDRVGTLEAGKLADVVAVPGNPIADITVTERPLFVMKDGVVVRRDAVR | 55 | 43 | 35
10 | 305 (protein, exemplary polypeptide) MTTRTRILTAFLSLLAANACAADAAPAAPHTVVLRAARMFDGASGKLVDHPQLTIVGNKIVRIAQGDKAEVPAGAEVVDLGDATLLPGFIDAHVHLSGQSSDNWYGDFFDNMMRFPAEQALYGAYYARITLEAGFTSVRDVGSTDWVALGLRNAIDAGKVPGPRMLVSNYAVGSTGGHADQDPVPPHKLPLMGPLQGVCNGPEECRAAVRYQIKYGANVIKFMPSGGVLSLSDPVDAPELSQDEMNAVIGESHAWGRKVAAHAHGDKAAKMAVAAGVDSIEHGSFIEDDTLRAMKAKNVYLVPTISAIAHVEEKIGTFPPVIAEKGRAAAAHLRQTFRHAVQIGVPIALGTDAGVGAHGSNAREFRYMVENGLTPAQALLAGTANAARLLGTFDRVGTLEAGKLADVVAVPGNPIADITVTERPLFVMKDGVVVRRDAVR | 36 | 46 | 35
